# Test results from the RNAGym collection of RNA variant scans (doi:10.1073/pnas.2313332121).
# Fewer inactive variants are shown than the library holds.
# B1: TPR 5TU (parent)
# chain: GGAUCUUCUCGAUCUAACAAAAAAGACAAAUCUGCCACAAAGCUUGAGAGCAUCUUCGGAUGCAGAGGCGGCAGCCUUCGGUGGCGCGAUAGCGCCAACGUUCUCAACUAUGACACGCAAAACGCGUGCUCCGUUGAAUGGAGUUUAUCAUG
# Variants of: B1
# Experiment: polymerase ribozyme fitness, log enrichment relative to wild type (log ratio); higher = more active; in vitro selection for triplet polymerase activity
# How it was run: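 After PCR construction and transcription, each subunit's mutant library from a heterodimeric triplet polymerase ribozyme was annealed with a biotinylated primer, the partner subunit and triplets. Incubation was frozen, at −7 °C, and extended constructs were gel-excised, bound to streptavidin beads and amplified by RT-PCR, in one selection round done in triplicate. Fitness is the logarithm of a genotype's enrichment divided by that of the wild type, from inverse-variance-weighted replicate averages of Illumina-sequenced inputs and outputs. The base of the logarithm is 2, and genotypes needed ≥10 input reads and ≥1 read per output.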
row,Variant,polymerase ribozyme fitness (log ratio)
1,U6C G70A C76G C87A G88A C116A,≤ -4.2
2,U7A A24C A47C U109C A120U,≤ -4.2
3,C8A A40U C57U U78A A119C,≤ -4.2
4,U9A A23U C32G C54G G92U U101C G140U,≤ -4.2
5,U6G G88A,-4.11
6,U6G C8G C18U C54U C131U,-3.56
7,C8G A12G C35U C75A G86U U109G U127G A137G,≤ -4.2
8,C8A U44C C79G G86C G140U,≤ -4.2
9,U7G A17C A24U A52G A64G C72G C85U G88U G92U C93G A119U,≤ -4.2
10,C8A U31G A37G G42A G83A,≤ -4.2
11,U7C G48U G84A G117C,≤ -4.2
12,C8U C14G U33G C51G C54U C57A U77G C87G G136U,≤ -4.2
13,C8U G141U,-2.76
14,U6G A23U C51A U55G A115U,≤ -4.2
15,U6G A37G U53A G80U U90C C149A,≤ -4.2
16,C8G G25C U53G C63U C108A,≤ -4.2
17,U7G A21U C54A A66C A91C G136A,≤ -4.2
18,C8U A17G A21U C57U G80A C96G,≤ -4.2
19,C8A A40U G42A G68A C85U U144G,≤ -4.2
20,C8A G50U G74C G80A C85U U139C G141C,≤ -4.2
21,U7G C93G U139A,≤ -4.2

row,Variant,polymerase ribozyme fitness (log ratio)
1,U7G C10U C35U A64G C96A C129A,≤ -4.2
2,C8G C63U G68A G92A A107U A142G,≤ -4.2
3,C8G G59C G86C G117U,≤ -4.2
4,C8U C95U C116G U135A,-3.94
5,U7G C14G A52C U55C G80A G86U C87A,≤ -4.2
6,C8G A52G,-3.17
7,U6G G11A,-0.786
8,U9A A12U C85U G88C U148G,≤ -4.2
9,U6G A26U C93U,-2.39
10,U7G U15G A21C A39G U45G G92U U127C,≤ -4.2
11,U7G A26C U44A G74C A115C,≤ -4.2
12,C8G C35U G46C C72U G74U C96U A107G,≤ -4.2
13,C8U C57U G71C G86A U104A,≤ -4.2
14,U7A C14G A29G C35G C36A G74A A91U C96A,≤ -4.2
15,U7G A64C A122G,≤ -4.2
16,U9C A52G U53A C114G U145G,≤ -4.2
17,U9C A12C A20G U53A A73U G92U C114A A121U G140A U151A,≤ -4.2
18,U6G G59U U61A C72U A89G U90A C93G C108U A122U,≤ -4.2
19,U6G A26C G83U A89U,-3.85
20,C8U C18G G50C G58U A73G C76A C93A C116A A120C,≤ -4.2
21,C8A C27U G70A C96U,≤ -4.2

row,Variant,polymerase ribozyme fitness (log ratio)
1,U6C G42U U77G C87U A122U,≤ -4.2
2,C8U A19G A39U C54U U61A G71A U77A G80C G88U G112C A113G C125G A150U,≤ -4.2
3,C8G U82G G84U C85U A107C,≤ -4.2
4,C8G G11C C14U G50C C95U C132A U135A A137C,≤ -4.2
5,U7A A24G C32A G88C C99G U104G G140C,-4.07
6,U7A U9C A20G U53G C87U A98U,-3.99
7,C8U A60G A121C,-3.73
8,C8U U15C A17U A40G G42C U61G C75U C93U C129U G133U,≤ -4.2
9,U9A C27U C36A G42C C69A G80A G136U G141C,≤ -4.2
10,C8G A16C G25U A37C G59C A64U C87A G92C,≤ -4.2
11,U7G G34U A60U C93U A107U,≤ -4.2
12,C8G A41U A49C G62A C79U C85U C96U C114G A115G,≤ -4.2
13,C8G A24G C76A U139A A142C U144C U148G,≤ -4.2
14,U7G U44G U55G C99A,≤ -4.2
15,C8A A20U G42C C43G U44A A113U A142C,≤ -4.2
16,C8G A24U G25U G80A C96G C125A,≤ -4.2
17,U6G A41G G48U C54U A122U,-0.949
18,U9C C10G C35U G94A C103A C108U A115U G140U,≤ -4.2
19,C8A A24G U61A C76G U78C G84U,≤ -4.2
20,U7G A23G C32A A115G,≤ -4.2
21,U7A A22G U77C G124U C132A,≤ -4.2

row,Variant,polymerase ribozyme fitness (log ratio)
1,U7A C27A U31G A66U U146G A150U,≤ -4.2
2,C8G A52U C95U U104G G140U,≤ -4.2
3,U7G A37G C38U G59U A60U G94U C108U,≤ -4.2
4,U6C G83A C114U,-2.57
5,U6C U7G G59U G68C U82C G136U,≤ -4.2
6,U7G C96U,-2.17
7,U6C G48C G65A U78A G80A G88C A106G U127C G152U,≤ -4.2
8,U7C A21C U33G C43U G62A C87U,≤ -4.2
9,C8G G67C G92U C99U A107U U148A,≤ -4.2
10,C8G A28G U61A U104A A110U A120G A138C,≤ -4.2
11,C8A A12U U15G G62U G124A,≤ -4.2
12,U7G C75G G84A G141A,≤ -4.2
13,U9A C76A C85U G100C U104G A115U,≤ -4.2
14,C8A C14G C27U G46A C76A U109G C131U G143A,≤ -4.2
15,U7G,-2.22
16,U7C,-1.19
17,U7A,-2.18
18,U6G G80C C149A,≤ -4.2
19,U6G A21C C75U U144A,-0.201
20,C8G U13A U33G G71A G74A C87G C96A C105A,≤ -4.2
